Reference: publication PMC2133023

Biological target: GAL4 DNA-binding domain fusion of the neuroglian^167 cytoplasmic domain with Y1234F (Drosophila)
Assay: two-hybrid

GAL4 activation domain–Drosophila ankyrin fusion protein (from UniProt Q24241 1-1549) (natural protein)
reduction of binding against wild type (β-galactosidase): 50%
